# Measurements taken from US20190031729A1 (Pieris, published 2019).
# B1: benchmark anti-LAG-3 antibody, BMS 986016 (SEQ ID NOs: 5 and 6) (antibody, V domains shown)
# VH: QVQLQQWGAGLLKPSETLSLTCAVYGGSFSDYYWNWIRQPPGKGLEWIGEINHRGSTNSNPSLKSRVTLSLDTSKNQFSLKLRSVTAADTAVYYCAFGYSDYEYNWFDPWGQGTLVTVSS
# VL: EIVLTQSPATLSLSPGERATLSCRASQSISSYLAWYQQKPGQAPRLLIYDASNRATGIPARFSGSGSGTDFTLTISSLEPEDFAVYYCQQRSNWPLTFGQGTNLEIKR
# Molecular target: T1, cynomolgus LAG-3 on CHO cells (cynomolgus)
# T1 construct: whole, on cells; also called CHO::cyLAG-3; CHO cells transfected with cynomolgus LAG-3
# Assay: FACS on CHO cells transfected with cynomolgus LAG-3
# Protocol: 5×10⁴ cells per well were pre-incubated for 1 h in ice-cold PBS containing 5% fetal calf serum (PBS-FCS). […] Cells were washed twice in ice-cold PBS using centrifugation at 300×g and then incubated with a rabbit anti-lipocalin primary antibody (polyclonal rabbit anti-hTlc, Pieris) for 30 min on ice. Cells were then again washed twice in ice-cold PBS, re-suspended in PBS-FCS and incubated 30 min on ice with an antibody labelled with Alexafluor647 (Jackson Immunologics). Cells were subsequently washed and analyzed using intellicyt IQue Flow cytometer (Intellicyt). Fluorescent data generated by lipocalin mutein binding to LAG-3 expressing cells were analyzed using Forecyt software and resulted geometric fluorescent mean were plotted and fitted using Graphpad software.
binder,measurement,value
B1,EC50,21 nM
